Assay: label from the status in PepcDB records

Sequence | protein production
MARIIVKNGYLKGGSEKTSAHLNNLVKYIATRDGVEKIKNGRELWHATKKQQTLIGEILREFPDAKEMFEYEDYLANPNRENASEFITIALEQHLDKIGDREKYLDYIANRPRVEKFESHGLFTAGDAPLVLSQVAEEVAAHTGNVWTPIISLRREDAARLDYDNAAAWKALLSSKAMELAENLKIHPDHLKWYGAFHNESHHPHIHMVCYSTDPREGYLTKQGIRKMKSSLANEIFRQELIPLYGEKTQRRDELKEQSAESLRELIRQIKGGVLVSERMEQLLTHLAERLQTVSGKKQYGYLKPELKNVVDEIVDDLAQDSRVSEAYRMWWETKGRIESIYTETPSEPPPLSHCDDFKPIRNMVIQEALLIGNMTFEEPASVETALPEPENDLEMSLSDIEDEEDQEPIDDSVGRPSSDEASAGKESSDSWWTEEYRQAKQYLCGDEDAGVPQDFRKAHELFMAEADKNNPLALYDLGRMSADGLGCEADADAAYGWYEKALVVLHAAEEAKPWKYTEYRIGKMYAAGLGAEQDYLQASDWLTLSADKKYKYAQYSLGGLYYHGKGVEQDHVTAFALYTRSADQSFPYASFELGKMLRDGIGCAKNQQDSDRRFKEAFLGFVSLEEQSHDDKLQYRLGWMLLNGIGTDKDEARAKEYFEKAASVGNPFACYQLAKFILSDEKAQPQDVEKALGYLRKAVEAENPYAAYFLGKLYEKGQHVPQNTAEAMRLYTLSAEQDNEFAAYRLGKLYLDGDGVLKDVESAIRWLTFAADRKNQFAEYALGVLYFKGEDIPKDVPKALEYLKRSAGQGNQFAQYRLGKIYLMGEDVPKDIQTALQFLTAAAEQGNQYAQYTLGKLYLIGKDVPKDKETAVRWFTLSAAQGNIYAQFFLDHIDNFKDPSVLLAGTRLLHHMSRIFADNAPPLKLPGQRTDRKLLRKLREKKQAQGHARDDHEQTMSL | failed
MWWSGLASQSKAQETPGRRGLEERKQLIMEIYNSLRSADIASIEFEGPEIAVYIRNPKFIVENENVVKDLARKLRKRIVVRTHPKSRKSMEYTIKFIRENVPPDVGIVDIQFDDVLGEVRVIAEKPGKLMGRGKVFRNLVLAETGWRLEVYRKPLLQSGLLDSVLRHLQRHAEERRRALRDIGERIFRDTLIGTRHVRVVGLGSFGEVGRSAILVDTGESKVLLDAGLSPSGYGPDSYPYYWSPEFRVDELDAVVISHAHLDHVGTLPLLFKYGFRGPVYATPPTRDIMIIVLRDLINLMRKAQGEPPFEPRDVEKALTRLIPVNYNTVTDVAPDIKMTFINAGHILGSSMVHLHIGQGLYNILYTADFKFYRIKNDRSTRLLPPAEYSFQRVEALIMEATYGSKETQPRAEAEEELINLVNKVYKRGGKLLIPVMAVGRGQEILVVLNEALRSGKIPEIPIYVDGMVYEVTAVYTNYPELLVKPIRDRILKQGENPFEGPTTVYVTDHYKRDEAMYSDKPAIILSTSGMMNGGPIVEYFKYLADDPRNALAFVSYQAPGTLGRRLQSGEREIELEMDGGIRRIKVNMEIVSIEGFTGHSTRGELLSFLRRLNPKPRNIVLNHGEPSAIAALAHTVKTGWSKLGFESPPIIEAPENLEGVRLYPRNLKMKLALQHS | failed
MTERLLVGVIVGSHGVRGLVRVKSFTQDEMALCDYGPLSDETGTRRFAVEVRNQAKGVVICQIPGVSDRTAADALKGTRLFLDRAALPADALEEDEYYHADLIGLPVDLVDGGRLGVVHSVHDFGAGDMLEVTLAQGRRSVLLPFTKAVVPLVDVKAGRLVADPPLGLLDDTRPPAGVEGEVEEDPGVGIDEDGDGKGGASLEHHHHHH | not failed
MENYHRLYELSPLITGWTICVMILRIYKKMLNDHSFELHLILQDEAGKRIEVTIGTRFSAFYYDRLIENQWKMISTFLGTVLLNNFTPFDYILEHSVRKDTLVDLLGALIDFDWLTNSAPNGSDMDGFKLQFRFIDSKFTIYSQDILQCEAHGEYAVDLEKKFRSVRNNKVVIALAFWKIVTYFDGGHRMKIASHAPISTVYPDPDIEPVKEIKMVCIY | failed
MISVVIPLFNKAPHIVRAVESVLEQSSPADEIIVVDDGSTDGGGELLLPYVAKHGVRLIRQENAGVSVARNHGVNLAASDYVAFLDADDFWLPNHIATLRRLIDNYPEASLFSTALIIERDGRQWRSKSTYSDGWEGVVQDFFTEYLRRFALVSSTTSCVRKKDFCSIGGFPVGVKYGEDFICWMKMALFYRVAHAEVVTAVYCLDAVNRTDQLQETDVLAPLQFIAKLLQSNELDNAQRVGLAQLFDHISFSTGARFRINSNLNGVNAIRNLSWEMGHYRVSLLMSALRFTPSLLLQAAKRFRYRQVSVV | failed
MADIDQASKTEMEAAAFRHLLRHLDEHKDVQNIDLMIQADFCRNCLAKWLMEAATEQGVELDYDGAREYVYGMPFAEWKTLYQKPASEAQLAAFEAKQAARKR | not failed
MTLKLKDKNTMLNSEKMVASIEKQDLHHADKYLKKALNEDPAEVLVELAEYLESIGFLPQAQEIYEKVRFDFPEVNVNLAQIAAEDGNIEEAFLYLDAIPEESEDYLSALIVKADLYQMEGLTDVARDKLLEASQLSDDSLIIFGLAEMEFELGNFEQAIQYYAKLDNRDLLATTGVSTYERIGKSYASLGKFEAAREFLEKAIEIEYNDTIAFELATLLYDQEEYQKANFYFKQIETMSSDFEGYEYNYALSLHAEHRTEEALRMTQQGISKNAFDVQLLLLASQLSYELHDTQSAESYLKQALPLAEDNDEIVLRLSALYLEEERFDDLVALADYEVDSVLARWNIARAYQALDDEEEAFQIYQDLSKDLADNPEFLQDYAYILREFGYRDQARVTAEKYLALVPDDVNMQTFLEDY | failed
MKSKFFAQNRERLVNTLPDESITILFAGQAPHMSADAHYKFVPNRNFYYVTGIDEPNVIFMLKKFGNSVEETLFIEKSDPVMEKWVGKTVSNEEAEKISGIKKVIYLDSFEKTMSNIFFTENVKHLYLDLECREWKGTETKTLAFAKHVREQYPHVTIGNVYPNICELRVFKTDEEIEIIKEAIAVTKDGIYNVLKHAKADMMEYELEAQFDFTLKSSGIKHHAFNTILASGKNATVLHYEDNDAQIQNGDLVLLDLGAQKDYYNADISYTFPANGTFSSRQKQIYNIVLNALKETTEIIKPGLKFAALNEHAKKVLAEGCKAVGLIQEDEELSKYYYHGVSHFLGLDTHDVGTYKDRVLEEGMVITIEPGLYIEEESIGIRIEDDILVTKDGHENLSKDIIREVEEIEEFMRENNVNVKQDEVVTK | not failed
MRGTTDEEDGVMNFSDVLMMSDDVLSSGEVEEDSFGFRFTGNDAPQMLCFGGGNQNDTDLLFSQPSFSPASPLSSRNNACVVNDQSFRSNKKTGSADGHDRVCDPKPGKRCKRDQKKSSLGNAKDDEDTGEVNPTMKVKELRSNGLCLVPLAWTVHVANTNGADLWSSAILSPLTSHTNSEPVEIVEVKSHKDK | failed
MRLNGDVGWLWDWLAAAGLEPRALGEAAVLCALKRRLDAAGCTAAAYPARLAADAEERARLLDAVLVPETWFFREPPAFEALAESAARHRLQRRSVPFHVLSLGCSTGEEPWSIVIALREAGMRKGDFRVEALDISARAIEAARAGIYGGRSFRSPGDGTWRSRYFDELGDGRYRVKDGLRGDVEYRVAHLGDPGWGGGRRYQAVFCRNVLIYLRAELRARIMDQCRDALDPGGLLVLGHADGIGGPDRGFRRHGVAGAFSWIRRDAAEAEPPPARSSRPLAAKAVRRDAPGEAKPSGPDLLSGGRETGRAAPFDEGAVLGTARALADGGNYQAAERLCQSHLASHPHDPEVHALLGIVMSAANRDDEALRYFRQALYLAPSHNESLLHLAALYERRGDEERARHFRNRSAAAEGEP | failed

Source: a protein production outcome set (Wang et al. 2014)
